US20050008648A1

Biological target: CD33 (UniProt P20138)
Assay: cell-based or functional assay

HuM195-dCK conjugate, sequence (B2R8V6 whole entry): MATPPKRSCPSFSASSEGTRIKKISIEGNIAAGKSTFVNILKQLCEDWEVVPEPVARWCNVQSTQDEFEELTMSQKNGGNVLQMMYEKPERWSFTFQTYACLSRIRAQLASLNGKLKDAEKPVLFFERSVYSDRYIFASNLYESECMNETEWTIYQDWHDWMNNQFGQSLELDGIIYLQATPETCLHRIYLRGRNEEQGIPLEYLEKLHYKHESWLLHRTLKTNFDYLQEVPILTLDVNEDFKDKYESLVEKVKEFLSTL
CD33, sequence (P20138 18-364 limits assumed): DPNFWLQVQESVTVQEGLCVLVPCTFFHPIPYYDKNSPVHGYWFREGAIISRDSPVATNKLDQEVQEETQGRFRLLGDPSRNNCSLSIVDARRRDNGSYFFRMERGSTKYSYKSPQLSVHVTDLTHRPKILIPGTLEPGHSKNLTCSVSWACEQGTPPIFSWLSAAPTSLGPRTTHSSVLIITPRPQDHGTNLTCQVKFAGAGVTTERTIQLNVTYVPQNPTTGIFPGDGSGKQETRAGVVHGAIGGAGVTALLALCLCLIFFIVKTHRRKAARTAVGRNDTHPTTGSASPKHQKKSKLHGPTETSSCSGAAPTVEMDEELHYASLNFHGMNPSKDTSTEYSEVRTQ

- apoptosis assay on NB4 cells, conjugate with AraC 250 nM: 65%
Substance: HuM195-dCK conjugate
- cell death of HL60 cells (Annexin V and propidium iodide staining), conjugate in combination with AraC 1 µM: 70%
